Experimental data from US20220177587A1, “METHODS AND USES OF VARIANT CD80 FUSION PROTEINS AND RELATED CONSTRUCTS” (Alpine Immune Sciences, Inc., priority 2018, published 2022).
Where two headings read alike, the source gives them in different places.

What was measured:
human CTLA-4 (human) [1] = biological target: human CTLA-4 (human) (UniProt P16410); assay: flow cytometry, CHO cells expressing huCTLA4
PD-L1 (human) [2] = biological target: PD-L1 (human) (UniProt Q9NZQ7); assay: flow cytometry, CHO cells expressing huPD-L1
Target sequence in this assay (Q9NZQ7 19-290): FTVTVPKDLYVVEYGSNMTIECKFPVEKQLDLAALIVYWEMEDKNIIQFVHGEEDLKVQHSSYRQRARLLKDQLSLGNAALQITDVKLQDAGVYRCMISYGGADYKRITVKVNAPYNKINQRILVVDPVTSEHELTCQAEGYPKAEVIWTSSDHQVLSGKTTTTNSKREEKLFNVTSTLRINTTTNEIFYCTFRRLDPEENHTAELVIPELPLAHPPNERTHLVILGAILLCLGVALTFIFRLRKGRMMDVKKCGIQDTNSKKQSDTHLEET

[3] = biological target: human CTLA-4 (huCTLA4), on stably transduced CHO cells (human) (UniProt P16410); assay: flow cytometry on CHO cells stably expressing huCTLA4, 33.3 nM Fc fusion, PE anti-human Fc
[4] = biological target: human PD-L1 (huPD-L1), on stably transduced CHO cells (human) (UniProt Q9NZQ7); assay: flow cytometry on CHO cells stably expressing huPD-L1, 33.3 nM Fc fusion, PE anti-human Fc
[5] = biological target: CD28, endogenously expressed on Jurkat/IL2 reporter cells (human) (UniProt P10747); assay: flow cytometry on Jurkat/IL2 reporter cells (endogenous CD28), 33.3 nM Fc fusion, PE anti-human Fc
CD28 (human) [6] = biological target: CD28 (human) (UniProt P10747); assay: flow cytometry, Jurkat cells (CD28)
human CTLA-4 (human) [7] = biological target: human CTLA-4 (human) (UniProt P16410); assay: flow cytometry, CHO cells stably expressing CTLA4
PD-L1 (human) [8] = biological target: PD-L1 (human) (UniProt Q9NZQ7); assay: flow cytometry, CHO cells stably expressing PD-L1
Target sequence in this assay (Q9NZQ7 19-290): as above

CD28 (human) [9] = biological target: CD28 (human) (UniProt P10747); assay: flow cytometry, Jurkat cells (CD28); remark: listed apart in the source
human CTLA-4 (human) [10] = biological target: human CTLA-4 (human) (UniProt P16410); assay: flow cytometry, CHO cells stably expressing CTLA4; remark: listed apart in the source
PD-L1 (human) [11] = biological target: PD-L1 (human) (UniProt Q9NZQ7); assay: flow cytometry, CHO cells stably expressing PD-L1; remark: listed apart in the source
Target sequence in this assay (Q9NZQ7 19-290): as above

PD-L1 (human) [12] = biological target: PD-L1 (human) (UniProt Q9NZQ7); assay: flow cytometry, MFI on PD-L1 cells over MFI on CD28 cells
Target sequence in this assay (Q9NZQ7 19-290): as above

human CTLA-4 (human) [13] = biological target: human CTLA-4 (human) (UniProt P16410); assay: flow cytometry, CHO cells expressing huCTLA-4
CD28 (human) [14] = biological target: CD28 (human) (UniProt P10747); assay: flow cytometry, Jurkat/IL2 reporter cells (CD28)
PD-L1 (human) [15] = biological target: PD-L1 (human) (UniProt Q9NZQ7); assay: flow cytometry, CHO cells expressing huPD-L1; remark: listed apart in the source
Target sequence in this assay (Q9NZQ7 19-290): as above

PD-L1 (human) [16] = biological target: PD-L1 (human) (UniProt Q9NZQ7); assay: flow cytometry, Expi293F cells transfected with PD-L1

Sequence of human PD-L1 (huPD-L1), on stably transduced CHO cells (human) (Q9NZQ7 19-290): as above
Sequence of human CTLA-4 (huCTLA4), on stably transduced CHO cells (human) (P16410 36-223): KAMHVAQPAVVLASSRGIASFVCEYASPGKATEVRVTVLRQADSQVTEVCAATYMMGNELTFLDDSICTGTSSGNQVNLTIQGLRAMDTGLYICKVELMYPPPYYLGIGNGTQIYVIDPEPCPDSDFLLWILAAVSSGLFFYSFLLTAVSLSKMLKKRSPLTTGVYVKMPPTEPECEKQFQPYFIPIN
Sequence of human CTLA-4 (human) (P16410 36-223): as above

“variant CD80 IgV-Fc E35D/M43I/M47V/K89N (Fc fusion)” was tested, and the MFI at 33.3 nM (human CTLA-4 (human) [1]) was 278000 MFI and the MFI at 33.3 nM (PD-L1 (human) [2]) was 19200 MFI.

In the case of “variant CD80 IgV-Fc E35D/M47V/I61V/L85M (Fc fusion)”, the MFI at 33.3 nM [3] is reported as 28800 MFI, the MFI at 33.3 nM [4] is reported as 3050 MFI and the MFI at 33.3 nM [5] is reported as 274 MFI.

Substance “CD80 IgV-Fc H18Y/E35D/V68M/L85M/R94Q (Fc fusion)” has a Fold change to WT CD80 (CD28 (human) [6]) of 23.3 fold, an MFI at 33.3 nM (CD28 (human) [6]) of 962 MFI and an MFI at 33.3 nM (human CTLA-4 (human) [7]) of 22000 MFI. For the same substance, the Fold change to WT CD80 (PD-L1 (human) [8]) was 131 fold and the MFI at 33.3 nM (PD-L1 (human) [8]) was 9280 MFI.

“variant CD80 IgV-Fc H18Y/A26E/M47L/V68M/D90G (Fc fusion)” was tested, and the Fold change to WT CD80 (CD28 (human) [9]) was 0.7 fold, the MFI at 33.3 nM (CD28 (human) [9]) was 32 MFI and the Fold change to WT CD80 (human CTLA-4 (human) [10]) was 21.1 fold. It also gave an MFI at 33.3 nM (human CTLA-4 (human) [10]) of 28600 MFI, a Fold change to WT CD80 (PD-L1 (human) [11]) of 541 fold and an MFI at 33.3 nM (PD-L1 (human) [11]) of 23600 MFI. The Ratio of PDL1:CD28 (PD-L1 (human) [12]) was 737.

For “variant CD80 IgV-Fc E35D/M47V/L85M/R94Q (Fc fusion)”, the MFI at 33.3 nM [3] was 23300 MFI and the MFI at 33.3 nM [5] was 23.7 MFI.

“variant CD80 IgV-Fc N48K/K89N (Fc fusion)” gave an MFI at 33.3 nM (human CTLA-4 (human) [13]) of 4370 MFI and an MFI at 33.3 nM (CD28 (human) [14]) of 170 MFI.

“variant CD80 IgV-Fc E35D/M38T/M43V/M47V/N48R/L85Q (Fc fusion)” gave an MFI at 33.3 nM (human CTLA-4 (human) [1]) of 204000 MFI and an MFI at 33.3 nM (PD-L1 (human) [2]) of 21800 MFI.

Work on “variant CD80 IgV-Fc Q33R/E35D/M47V/N48K/L85M/F92L (Fc fusion)” yielded an MFI at 33.3 nM (human CTLA-4 (human) [1]) of 2680 MFI and an MFI at 33.3 nM (PD-L1 (human) [2]) of 21400 MFI.

“variant CD80 IgV-Fc A26E/E35D/M47L/V68M/A71G/D90G (Fc fusion)” was tested, and the Fold change to WT CD80 (CD28 (human) [9]) was 50.4 fold, the MFI at 33.3 nM (CD28 (human) [9]) was 2210 MFI and the Fold change to WT CD80 (human CTLA-4 (human) [10]) was 16 fold. For the same substance, the MFI at 33.3 nM (human CTLA-4 (human) [10]) was 21700 MFI, the Fold change to WT CD80 (PD-L1 (human) [11]) was 693 fold and the MFI at 33.3 nM (PD-L1 (human) [11]) was 30200 MFI. It also gave a Ratio of PDL1:CD28 (PD-L1 (human) [12]) of 13.7.

In the case of “variant CD80 IgV-Fc E35D/M47V/N48K/L85M (Fc fusion)”, the MFI at 33.3 nM [4] is reported as 5660 MFI and the MFI at 33.3 nM [5] is reported as 413 MFI.

“variant CD80 IgV-Fc E35D/M38T/D46E/M47V/N48S (Fc fusion)” showed an MFI at 33.3 nM (PD-L1 (human) [2]) of 19400 MFI.

“variant CD80 IgV-Fc H18Y/A26E/M47L/A71G/D90G (Fc fusion)” showed a Fold change to WT CD80 (CD28 (human) [9]) of 46.6 fold, an MFI at 33.3 nM (CD28 (human) [9]) of 2050 MFI and a Fold change to WT CD80 (human CTLA-4 (human) [10]) of 18.7 fold. For the same substance, the MFI at 33.3 nM (human CTLA-4 (human) [10]) was 25400 MFI, the Fold change to WT CD80 (PD-L1 (human) [11]) was 407 fold and the MFI at 33.3 nM (PD-L1 (human) [11]) was 17700 MFI. For the same substance, the Ratio of PDL1:CD28 (PD-L1 (human) [12]) was 8.7.

With “CD80 IgV-Fc H18Y/E35D/D46E/M47I/V68M/R94L (Fc fusion)” the MFI at 33.3 nM (human CTLA-4 (human) [7]) was 19200 MFI and the MFI at 33.3 nM (PD-L1 (human) [8]) was 2080 MFI.

“CD80 IgV-Fc H18Y/E35D/V68M/A71G/R94Q/E95V (Fc fusion)” showed an MFI at 33.3 nM (CD28 (human) [6]) of 455 MFI, a Fold change to WT CD80 (human CTLA-4 (human) [7]) of 18.6 fold and an MFI at 33.3 nM (human CTLA-4 (human) [7]) of 19400 MFI. It also gave a Fold change to WT CD80 (PD-L1 (human) [8]) of 25.9 fold and an MFI at 33.3 nM (PD-L1 (human) [8]) of 1840 MFI.

“variant CD80 IgV-Fc M47V/N48K (Fc fusion)” was tested, and the MFI at 33.3 nM (PD-L1 (human) [15]) was 3080 MFI, the MFI at 33.3 nM (human CTLA-4 (human) [13]) was 44600 MFI and the MFI at 33.3 nM (CD28 (human) [14]) was 413 MFI.

In the case of WT CD80 ECD-Fc (Example 25) (Fc fusion), the MFI (PD-L1 (human) [16]) is reported as 70 MFI.

Work on variant CD80 IgV-Fc E35D (Fc fusion) yielded an MFI at 33.3 nM (PD-L1 (human) [15]) of 2580 MFI, an MFI at 33.3 nM (human CTLA-4 (human) [13]) of 42900 MFI and an MFI at 33.3 nM (CD28 (human) [14]) of 134 MFI.

For “variant CD80 IgV-Fc E35D/N48K/L72V (Fc fusion)”, the MFI at 33.3 nM [4] was 3030 MFI and the MFI at 33.3 nM [5] was 582 MFI.

In the case of “variant CD80 IgV-Fc M47V/V68M/K89N (Fc fusion)”, the MFI at 33.3 nM (PD-L1 (human) [15]) is reported as 11800 MFI, the MFI at 33.3 nM (human CTLA-4 (human) [13]) is reported as 24800 MFI and the MFI at 33.3 nM (CD28 (human) [14]) is reported as 1320 MFI.

In the case of “variant CD80 IgV-Fc E35D/D46E/A91G (Fc fusion)”, the MFI at 33.3 nM [3] is reported as 32200 MFI, the MFI at 33.3 nM [4] is reported as 2820 MFI and the MFI at 33.3 nM [5] is reported as 3450 MFI.

Work on “variant CD80 IgV-Fc E35D/M47I/N48K/I61F (Fc fusion)” yielded an MFI at 33.3 nM [3] of 25900 MFI, an MFI at 33.3 nM [4] of 5630 MFI and an MFI at 33.3 nM [5] of 816 MFI.

Work on variant CD80 IgV-Fc K89N (Fc fusion) yielded an MFI at 33.3 nM (PD-L1 (human) [15]) of 52.8 MFI, an MFI at 33.3 nM (human CTLA-4 (human) [13]) of 944 MFI and an MFI at 33.3 nM (CD28 (human) [14]) of 56.3 MFI.

With “variant CD80 IgV-Fc H18Y/A26E/E35D/V68M/D90G (Fc fusion)” the Fold change to WT CD80 (CD28 (human) [9]) was 58.9 fold, the MFI at 33.3 nM (CD28 (human) [9]) was 2580 MFI and the Fold change to WT CD80 (human CTLA-4 (human) [10]) was 14.2 fold. The MFI at 33.3 nM (human CTLA-4 (human) [10]) was 19300 MFI, the Fold change to WT CD80 (PD-L1 (human) [11]) was 532 fold and the MFI at 33.3 nM (PD-L1 (human) [11]) was 23200 MFI. It also gave a Ratio of PDL1:CD28 (PD-L1 (human) [12]) of 9.

For variant CD80 IgV-Fc V68M (Fc fusion), the MFI at 33.3 nM (PD-L1 (human) [15]) was 118 MFI, the MFI at 33.3 nM (human CTLA-4 (human) [13]) was 568 MFI and the MFI at 33.3 nM (CD28 (human) [14]) was 37.9 MFI.

For “variant CD80 IgV-Fc H18Y/E35D/M47L/V68M/A71G/D90G (Fc fusion)”, the Fold change to WT CD80 (CD28 (human) [9]) was 63.6 fold, the MFI at 33.3 nM (CD28 (human) [9]) was 2790 MFI and the Fold change to WT CD80 (human CTLA-4 (human) [10]) was 14.6 fold. It also gave an MFI at 33.3 nM (human CTLA-4 (human) [10]) of 19900 MFI, a Fold change to WT CD80 (PD-L1 (human) [11]) of 687 fold and an MFI at 33.3 nM (PD-L1 (human) [11]) of 29900 MFI. For the same substance, the Ratio of PDL1:CD28 (PD-L1 (human) [12]) was 10.7.
